Laboratory results from PMC4506093.

Columns and labels:
[1] = target: highly purified 26S proteasome, extracted from transformed HEK cells
[2] = target: highly purified 26S proteasome, extracted from transformed HEK cells; remark: listed apart in the source

inhibition of the caspase-like activity (50 micromol/L Z-LLE-AMC, after subtracting IDE's own cleavage) of 1 nanomol/L 26S proteasome by IDE up to 50 nanomol/L at 37°C; value at 50 nanomol/L IDE [1]: 60%
inhibition of the chymotryptic-like activity (50 micromol/L Suc-LLVY-AMC) of 1 nanomol/L 26S proteasome by IDE from 1 nanomol/L to 50 nanomol/L at 37°C; value at 50 nanomol/L IDE [2]: 55%
inhibition of the tryptic-like activity (50 micromol/L Boc-LLR-AMC) of 1 nanomol/L 26S proteasome by IDE from 1 nanomol/L to 50 nanomol/L at 37°C; value at 50 nanomol/L IDE [2]: 65 to 70%
Substance: recombinant IDE expressed in Spodoptera frugiperda (from UniProt P35559 1-1019) (enzyme)
